Experimental data published in article PMC12098889, “Structural insight into PIF6-mediated red light signal transduction of plant phytochrome B” (Cell Discovery, 2025).
Numbering of substitutions follows the chain as printed. Names may count otherwise. One block for each molecule: values may come before it.

B1: phyBN^Y276H (1‒908) (domain or fragment, Arabidopsis, UniProt P14713 1-908, looked up)
chain: MVSGVGGSGGGRGGGRGGEEEPSSSHTPNNRRGGEQAQSSGTKSLRPRSNTESMSKAIQQYTVDARLHAVFEQSGESGKSFDYSQSLKTTTYGSSVPEQQITAYLSRIQRGGYIQPFGCMIAVDESSFRIIGYSENAREMLGIMPQSVPTLEKPEILAMGTDVRSLFTSSSSILLERAFVAREITLLNPVWIHSKNTGKPFYAILHRIDVGVVIDLEPARTEDPALSIAGAVQSQKLAVRAISQLQALPGGDIKLLCDTVVESVRDLTGYDRVMVHKFHEDEHGEVVAESKRDDLEPYIGLHYPATDIPQASRFLFKQNRVRMIVDCNATPVLVVQDDRLTQSMCLVGSTLRAPHGCHSQYMANMGSIASLAMAVIINGNEDDGSNVASGRSSMRLWGLVVCHHTSSRCIPFPLRYACEFLMQAFGLQLNMELQLALQMSEKRVLRTQTLLCDMLLRDSPAGIVTQSPSIMDLVKCDGAAFLYHGKYYPLGVAPSEVQIKDVVEWLLANHADSTGLSTDSLGDAGYPGAAALGDAVCGMAVAYITKRDFLFWFRSHTAKEIKWGGAKHHPEDKDDGQRMHPRSSFQAFLEVVKSRSQPWETAEMDAIHSLQLILRDSFKESEAAMNSKVVDGVVQPCRDMAGEQGIDELGAVAREMVRLIETATVPIFAVDAGGCINGWNAKIAELTGLSVEEAMGKSLVSDLIYKENEATVNKLLSRALRGDEEKNVEVKLKTFSPELQGKAVFVVVNACSSKDYLNNIVGVCFVGQDVTSQKIVMDKFINIQGDYKAIVHSPNPLIPPIFAADENTCCLEWNMAMEKLTGWSRSEVIGKMIVGEVFGSCCMLKGPDALTKFMIVLHNAIGGQDTDKFPFPFFDRNGKFVQALLTANKRVSLEGKVIGAFCFLQIPS
modifications: PΦB chromophore covalently bound
notes: Arabidopsis phytochrome B, residues 1-908, with Y276H; also called HKRD-truncated phyBN^Y276H; truncated phyBN^Y276H (M1‒S908); source: E. coli BL21(DE3), co-expressed with HO1 and HY2, purified; not shown: 3× Flag, N-terminal, kept
B2: phytochrome B (phyB), full length (1‒1172) (receptor, Arabidopsis, UniProt P14713 1-1172, looked up)
chain: MVSGVGGSGGGRGGGRGGEEEPSSSHTPNNRRGGEQAQSSGTKSLRPRSNTESMSKAIQQYTVDARLHAVFEQSGESGKSFDYSQSLKTTTYGSSVPEQQITAYLSRIQRGGYIQPFGCMIAVDESSFRIIGYSENAREMLGIMPQSVPTLEKPEILAMGTDVRSLFTSSSSILLERAFVAREITLLNPVWIHSKNTGKPFYAILHRIDVGVVIDLEPARTEDPALSIAGAVQSQKLAVRAISQLQALPGGDIKLLCDTVVESVRDLTGYDRVMVYKFHEDEHGEVVAESKRDDLEPYIGLHYPATDIPQASRFLFKQNRVRMIVDCNATPVLVVQDDRLTQSMCLVGSTLRAPHGCHSQYMANMGSIASLAMAVIINGNEDDGSNVASGRSSMRLWGLVVCHHTSSRCIPFPLRYACEFLMQAFGLQLNMELQLALQMSEKRVLRTQTLLCDMLLRDSPAGIVTQSPSIMDLVKCDGAAFLYHGKYYPLGVAPSEVQIKDVVEWLLANHADSTGLSTDSLGDAGYPGAAALGDAVCGMAVAYITKRDFLFWFRSHTAKEIKWGGAKHHPEDKDDGQRMHPRSSFQAFLEVVKSRSQPWETAEMDAIHSLQLILRDSFKESEAAMNSKVVDGVVQPCRDMAGEQGIDELGAVAREMVRLIETATVPIFAVDAGGCINGWNAKIAELTGLSVEEAMGKSLVSDLIYKENEATVNKLLSRALRGDEEKNVEVKLKTFSPELQGKAVFVVVNACSSKDYLNNIVGVCFVGQDVTSQKIVMDKFINIQGDYKAIVHSPNPLIPPIFAADENTCCLEWNMAMEKLTGWSRSEVIGKMIVGEVFGSCCMLKGPDALTKFMIVLHNAIGGQDTDKFPFPFFDRNGKFVQALLTANKRVSLEGKVIGAFCFLQIPSPELQQALAVQRRQDTECFTKAKELAYICQVIKNPLSGMRFANSLLEATDLNEDQKQLLETSVSCEKQISRIVGDMDLESIEDGSFVLKREEFFLGSVINAIVSQAMFLLRDRGLQLIRDIPEEIKSIEVFGDQIRIQQLLAEFLLSIIRYAPSQEWVEIHLSQLSKQMADGFAAIRTEFRMACPGEGLPPELVRDMFHSSRWTSPEGLGLSVCRKILKLMNGEVQYIRESERSYFLIILELPVPRKRPLSTASGSGDMMLMMPY
modifications: PΦB chromophore covalently linked to C357
notes: Arabidopsis phytochrome B, residues 1-1172, At2g18790; The same protein is Pr in the dark and Pfr after red light; The purification uses Ni-NTA, but no His tag on phyB is described; also called wild-type phyB; phyB-Pr (dark); source: E. coli BL21(DE3), co-expressed with HO1 and HY2, purified (Ni-NTA, anti-FLAG resin, Source Q); not shown: 3× Flag ([residues removed]), N-terminal, kept
B3: phyB^Y276H/T449C (with C925S, C936S, C972S and C1121S) (receptor, Arabidopsis, UniProt P14713 1-1172, looked up)
chain: B2 chain with Y276H, T449C, C925S, C936S, C972S, C1121S
modifications: PΦB chromophore covalently bound
notes: Arabidopsis phytochrome B (1-1172) with Y276H, T449C and C925S, C936S, C972S, C1121S; source: E. coli BL21(DE3), purified
B4: phyB^T449C (with C925S, C936S, C972S and C1121S) (receptor, Arabidopsis, UniProt P14713 1-1172, looked up)
chain: B2 chain with T449C, C925S, C936S, C972S, C1121S
modifications: PΦB chromophore covalently bound
notes: Arabidopsis phytochrome B (1-1172) with T449C for cross-linking and C925S, C936S, C972S, C1121S against nonspecific cross-linking; source: E. coli BL21(DE3), purified
B5: phyB^Y276H, full length (receptor, Arabidopsis, UniProt P14713 1-1172, looked up)
chain: B2 chain with Y276H
modifications: PΦB chromophore covalently bound
notes: Arabidopsis phytochrome B, residues 1-1172, At2g18790, with Y276H; also called constitutively active mutant phyB^Y276H; source: E. coli BL21(DE3), co-expressed with HO1 and HY2, purified (Ni-NTA, anti-FLAG resin, Source Q); not shown: 3× Flag ([residues removed]), N-terminal, kept
B6: PIF6α (1‒363) (natural protein, Arabidopsis, UniProt Q8L5W7 1-363, looked up)
chain: MMFLPTDYCCRLSDQEYMELVFENGQILAKGQRSNVSLHNQRTKSIMDLYEAEYNEDFMKSIIHGGGGAITNLGDTQVVPQSHVAAAHETNMLESNKHVDDSETLKASSSKRMMVDYHNRKKIKFIPPDEQSVVADRSFKLGFDTSSVGFTEDSEGSMYLSSSLDDESDDARPQVPARTRKALVKRKRNAEAYNSPERNQRNDINKKMRTLQNLLPNSHKDDNESMLDEAINYMTNLQLQVQMMTMGNRFVTPSMMMPLGPNYSQMGLAMGVGMQMGEQQFLPAHVLGAGLPGINDSADMLRFLNHPGLMPMQNSAPFIPTENCSPQSVPPSCAAFPNQIPNPNSLSNLDGATLHKKSRKTNR
notes: Modified pCold TF vector; purified on Ni resin, so a His tag is likely present but is not described; also called full-length PIF6α; source: E. coli BL21(DE3), purified (Ni-NTA, Strep-Tactin, Source Q); not shown: StrepII, C-terminal, kept

Tests used:
[1] = target: PIF6β (1‒182) (Arabidopsis); assay: cryo-EM structure; phyB and PIF6β mixed ~1:1.5, on ice under red light (665 nm, 800 μmol m^-2 s^-1), SEC in 25 mM HEPES pH 7.8, 250 mM KCl, 10 mM DTT, 1 mM EDTA; irradiated with red light 20 min before freezing
[2] = target: phytochrome B (phyB), full length (1‒1172) (Arabidopsis) (UniProt P14713)
[3] = target: the molecule itself; assay: cryo-EM structure; phyB^Y276H or phyBN^Y276H mixed with PIF6β ~1:1.5; full-length complex prepared in the dark; SEC on Superose 6 Increase before freezing
[4] = target: the molecule itself; assay: cryo-EM structure; phyB and PIF6β mixed ~1:1.5, on ice under red light (665 nm, 800 μmol m^-2 s^-1), SEC in 25 mM HEPES pH 7.8, 250 mM KCl, 10 mM DTT, 1 mM EDTA; irradiated with red light 20 min before freezing
[5] = target: the molecule itself; assay: cross-linking; thiol-directed cross-linking with 1 mM M2M, ~2 μM protein, on ice 30 min, under red light (665 nm, 767 μmol m^-2 s^-1); 25 mM Tris-HCl pH 8.0, 150 mM NaCl; reversed by DTT; more cross-linked band with the PIF6 fragment 13-100
[6] = target: PIF6β (1‒182) (Arabidopsis); assay: cryo-EM structure; phyB^Y276H or phyBN^Y276H mixed with PIF6β ~1:1.5; full-length complex prepared in the dark; SEC on Superose 6 Increase before freezing
phyB^Y276H, full length = target: B5; assay: pull-down; StrepII-tagged PIF6 forms or PIFNs held on Strep-Tactin Sepharose, 3× Flag-phyB or phyB^Y276H in the mixture; in the dark, 4 °C, 2 h; buffer E (100 mM Tris-HCl pH 8.0, 150 mM NaCl, 1 mM EDTA); SDS-PAGE with Coomassie and zinc-induced fluorescence; conditions: both partners purified

- stoichiometry N (phyB per PIF6β) [1]: 2
Molecule: phytochrome B (phyB), full length (1‒1172) (from UniProt P14713 1-1172) (receptor)

- Pfr→Pr thermal reversion at 25 °C: amount of phyB-Pfr remaining after 400 min with PIF6β against phyB alone [2]: 8 fold
Molecule: PIF6β (1‒182) (natural protein)

Molecule: B1
- binding result [3]: binds

Molecule: B2
- binding result [4]: binds

Molecule: B3
- binding result [5]: binds

Molecule: B4
- binding result [5]: binds

Molecule: B5
- stoichiometry N (phyB per PIF6β) [6]: 2
- binding result [3]: binds

Molecule: B6
- binding result (phyB^Y276H, full length): binds
